Source: patent publication US20210395725A1 (EVERCYTE, published 2021)

Assays:
[1] = target: T1, mouse EGFR-Fc (mouse, UniProt Q01279 25-647, limits assumed, biotinylated with EZ-Link Sulfo-NHS-LC-LC-Biotin); experiment: HEK293-6E cell display flow cytometry; 500 nM biotinylated antigen + streptavidin-Alexa Fluor 647; secondary only 14.11 (same values as in Table 12)
T1 construct: Bought; also called Mouse EGFR-Fc-biotin; biotinylated mouse EGFR-Fc
Method: (§1) 1×10⁵ cells have been blocked in 2% BSA-PBS for 30 min on ice and then stained with each 500 nM biotinylated human EGFR-Fc, biotinylated human Her2/neu-Fc and biotinylated mouse EGFR-Fc for 30 min on ice in 2% BSA-PBS. […] Cells were then centrifuged at 300 g, 5 min at 4° C. and re-suspended in 200 μl ice-cold PBS. […] The fluorescence has been determined with Guava EasyCyte flow cytometer.

[2] = target: T2, human Her2/neu-Fc (human, UniProt P04626 23-652, biotinylated with EZ-Link Sulfo-NHS-LC-LC-Biotin); experiment: as above
T2 construct: Bought; also called Human Her2/neu-Fc-biotin; biotinylated human Her2/neu-Fc
Method: as §1

[3] = target: T3, human EGFR-Fc (human, UniProt P00533 25-645, biotinylated with EZ-Link Sulfo-NHS-LC-LC-Biotin in most assays); experiment: as above
T3 construct: Bought; also called Human EGFR-Fc-biotin; EGFR-Fc-biotin
Method: as §1

[4] = target: T1, mouse EGFR-Fc; experiment: HEK293-6E cell display flow cytometry; 500 nM biotinylated antigen + streptavidin-Alexa Fluor 647; secondary only 14.11
Method: as §1

[5] = target: T2, human Her2/neu-Fc; experiment: as above
Method: as §1

[6] = target: T3, human EGFR-Fc; experiment: as above
Method: as §1

[7] = target: T1, mouse EGFR-Fc; experiment: yeast display flow cytometry; mouse EGFR-Fc + streptavidin-Alexafluor 647
[8] = target: T4, human placental laminin (human); experiment: ELISA; biotinylated laminin 5 µg/ml on streptavidin plate, neat eluted His-tagged protein, anti-pentaHis-HRP
T4 construct: Bought; also called human laminin; laminin-biotin
Method: Neat eluted proteins were tested for binding to their cognate antigen and BSA as a control antigen. Streptavidin-activated plates (Immobilizer, NUNC) were coated with biotinylated laminin at 5 μg/ml in PBS for 30 min at RT and blocked with 4% BSA-PBS for 1 h at RT. Eluted proteins were added in 2% BSA-PBS and allowed to bind for 1 h at RT. […] The reaction was stopped with the addition of H₂SO₄ and the absorbance read at 450/620 nm (Table 15).

[9] = target: T1, mouse EGFR-Fc; experiment: HEK293-6E cell display flow cytometry; 500 nM biotinylated antigen + streptavidin-Alexa Fluor 647; secondary only 2.67
Method: as §1

[10] = target: T2, human Her2/neu-Fc; experiment: as above
Method: as §1

[11] = target: T3, human EGFR-Fc; experiment: as above
Method: as §1

[12] = target: T1, mouse EGFR-Fc; experiment: flow cytometry, HEK293-6E cell display (pDisplay)
Method: (§2) 1×10⁵ cells have been blocked in 2% BSA-PBS for 30 min on ice and then stained with each 500 nM biotinylated human EGFR-Fc, biotinylated human Her2/neu-Fc and biotinylated mouse EGFR-Fc for 30 min on ice in 2% BSA-PBS. […] Cells were then centrifuged at 300 g, 5 min at 4° C. and resuspended in 200 μl ice-cold PBS. […] The fluorescence has been determined with Guava EasyCyte flow cytometer.
as §1

[13] = target: T3, human EGFR-Fc; experiment: flow cytometry, HEK293-6E cell display (pDisplay)
Method: as §2, §1

[14] = target: T5, streptavidin-Alexafluor 647 (UniProt P22629 37-163, limits assumed, Alexa Fluor 647 conjugate); experiment: yeast display flow cytometry, secondary reagent only
T5 construct: Secondary detection reagent, tested alone as a control; also called secondary reagent; 2nd

[15] = target: T5, streptavidin-Alexafluor 647; experiment: yeast display flow cytometry; secondary reagent only
[16] = target: T1, mouse EGFR-Fc; experiment: yeast display flow cytometry, clone 9
[17] = target: T2, human Her2/neu-Fc; experiment: flow cytometry, HEK293-6E cell display (pDisplay)
Method: as §2, §1

[18] = target: T1, mouse EGFR-Fc; experiment: HEK293-6E cell display flow cytometry; 500 nM biotinylated antigen + streptavidin-Alexa Fluor 647; secondary only 5.82
Method: as §2

[19] = target: T2, human Her2/neu-Fc; experiment: as above
Method: as §2

[20] = target: T3, human EGFR-Fc; experiment: as above
Method: as §2

T5 sequence (P22629 37-163 limits assumed): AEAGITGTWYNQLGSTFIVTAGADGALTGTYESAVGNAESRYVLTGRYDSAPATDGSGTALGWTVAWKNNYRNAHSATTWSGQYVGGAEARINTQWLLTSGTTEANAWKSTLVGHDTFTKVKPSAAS

B1: wild-type human CD81 LEL (other)
chain: FVNKDQIAKDVKQFYDQALQQAVVDDDANNAKAVVKTFHETLDCCGSSTLTALTTSVLKNNLCPSGSNIISNLFKEDCHQKIDDLFSGK
notes: the formats are named in the assay field; The soluble form runs as a dimer in SEC; also called wild-type CD81 LEL; hCD81 LEL
- % antigen binding cells [1]: 12.8%
- % antigen binding cells [2]: 10.5%
- % antigen binding cells [3]: 10.4%
- % antigen binding cells [4]: 12.8%
- % antigen binding cells [5]: 10.5%
- % antigen binding cells [6]: 10.4%
- median fluorescence [7]: 9.1

B2: laminin-binding CD81 LEL mutant L2A_LU1 (designed binder)
chain: FVNKDQIAKDVKQFYDQALRECCNTFDANNACAVVKTFHETLDCCGSSTTHSSTGCVLFFNLCPSGSNIISNLFKEDCHQKIDDLFSGK
- A450/620 (average) [8]: 0.156

B3: anti-Her2/neu directed CD81 LEL clone 81_H2_11 (designed binder)
chain: FVNKDQIAKDVKQFYDQALVNCCYTRAANNACAVVKTFHETLDCCGSSTHYVDTHCVLNRNLCPSGSNIISNLFKEDCHQKIDDLFSGK
notes: also called anti-Her2/neu clone
- % antigen binding cells [9]: 5.68%
- % antigen binding cells [10]: 44.2%
- % antigen binding cells [11]: 5.16%
- binding result [12]: no binding (tested: 500 nM)
- binding result [13]: no binding (tested: 500 nM)

B4: CD81 LEL library 1 variant RAN / IWRARRRRS (yeast clones 3, 13, 21 of the mouse EGFR-Fc selection) (designed binder)
chain: FVNKDQIAKDVKQFYDQALQQAVVDDDANNAKAVVKTFHETLDCCGSRANTALTTSVLKNNLCPSGSNIWRARRRRSCHQKIDDLFSGK
notes: also called clone 3; clone 13
- binding result [14]: no binding

B5: CD81 LEL library 1 variant VRR / RRPRKRTRS (yeast clones 1, 8, 15 of the mouse EGFR-Fc selection) (designed binder)
chain: FVNKDQIAKDVKQFYDQALQQAVVDDDANNAKAVVKTFHETLDCCGSVRRTALTTSVLKNNLCPSGSNRRPRKRTRSCHQKIDDLFSGK
notes: also called clone 1; clone 8
- binding result [14]: no binding

B6: CD81 LEL library 1 variant SSS / SRRWRHRIA (yeast clones 6, 18 of the mouse EGFR-Fc selection) (designed binder)
chain: FVNKDQIAKDVKQFYDQALQQAVVDDDANNAKAVVKTFHETLDCCGSSSSTALTTSVLKNNLCPSGSNSRRWRHRIACHQKIDDLFSGK
notes: also called clone 6; clone 18
- binding result [14]: no binding

B7: CD81 LEL library 1 variant MGN / WWGRRFRVS (yeast clone 9 of the mouse EGFR-Fc selection) (designed binder)
chain: FVNKDQIAKDVKQFYDQALQQAVVDDDANNAKAVVKTFHETLDCCGSMGNTALTTSVLKNNLCPSGSNWWGRRFRVSCHQKIDDLFSGK
- median fluorescence [15]: 14.6
- binding result [16]: no binding
- median fluorescence [7]: 11.8

B8: CD81 LEL library 1 variant SFS / RRFRKRPGD (yeast clones 5, 19 of the mouse EGFR-Fc selection) (designed binder)
chain: FVNKDQIAKDVKQFYDQALQQAVVDDDANNAKAVVKTFHETLDCCGSSFSTALTTSVLKNNLCPSGSNRRFRKRPGDCHQKIDDLFSGK
notes: also called clone 5; clone 19
- binding result [14]: no binding

B9: CD81 LEL library 1 variant ERL / RRSRRRVHD (yeast clones 2, 4, 7, 10, 11, 12, 14, 16, 17, 20, 22, 23 of the mouse EGFR-Fc selection) (designed binder)
chain: FVNKDQIAKDVKQFYDQALQQAVVDDDANNAKAVVKTFHETLDCCGSERLTALTTSVLKNNLCPSGSNRRSRRRVHDCHQKIDDLFSGK
notes: also called clone 2; clone 4
- binding result [14]: no binding

B10: EGFR-specific CD81 LEL binder L2B_EU1_1 (designed binder)
chain: FVNKDQIAKDVKQFYDQALWWCCVLYKANNACAVVKTFHETLDCCGSSTGRSHTACVLKGNLCPSGSNIISNLFKEDCHQKIDDLFSGK
notes: also called L2BE1_1
- binding result [17]: no binding (tested: 500 nM)
- % antigen binding cells [18]: 89.3%
- % antigen binding cells [19]: 8.17%
- % antigen binding cells [20]: 71.1%

B11: laminin-binding CD81 LEL mutant L3B_LU1_2 (designed binder)
chain: FVNKDQIAKDVKQFYDQCLKYACKQGDWENAKACVKTFHETLDCCGSSTVANMTRCVLPANLCPSGSNIISNLFKEDCHQKIDDLFSGK
- A450/620 (average) [8]: 1.32

B12: laminin-binding CD81 LEL mutant L3A_LU1 (designed binder)
chain: FVNKDQIAKDVKQFYDQCLLWACSKRYKYNAKACVKTFHETLDCCGSSTMGNLTECVLIENLCPSGSNIISNLFKEDCHQKIDDLFSGK
- A450/620 (average) [8]: 1.7
